Assay results taken from a protein production outcome set (Wang et al. 2014).

Assay: label from the status in PepcDB records

Sequence | protein production
MARIHQLDEHLSNMIAAGEVVERPSGIVKELVENSIDAKAKHIEIQILQGGIDCITIIDDGCGMDAQDATLAFERHATSKIQAVDDLWKISTMGFRGEALPSIASVSQVTLRTNDGIDSSEVIIYYGTLKSARPCGTPKGTMLEVRNLFQKTPARFKHLKSPQYEFSLISDVVQKFAISHPNIGFELSHDGRSVFKTKGNGNLREVLMQIYGRDGAKTAIELHGQDLDYTIRGYALQPQFQRATKYYVLLYINGRMIRNYHLQKAVMDAYAPYMPKDRYPIAVINMEMDAQLVDVNVHPSKWEIRLSKEKQLEKLLYQTIKAALMQDMEVPNIQARKENKKEKIEIQELQFTYPRDQEVKKLHTEVNDSFVHYNGKPKQTITEESKVQVDKVEPQEAPVEAEKQESVDKKQELSESQSSDTQAPIKDQVIEEVSTTKQAETLFKDIVPIQEVVMKAEQEPASESINPSLPQLHVIGQFHNSYILAEGEKGLYIIDQHAAQERYHYEMIQKQILSGVKDTQPLLIPITVETTISAVSRIDDLNALLEQVGIHFEVFGNTTLLCRELPIWLKDTKEEAFLQDMIDLWQKDDEISLDKLRKHTIATMACHSSIRFHRSLTMEEMKQVILDLGKCEQPFHCPHGRPTLICYEDKDLIHDFERG | failed
MARIIVKNGYLKGGSEKTSAHLNNLVKYIATRDGVEKIKNGRELWHATKKQQTLIGEILREFPDAKEMFEYEDYLANPNRENASEFITIALEQHLDKIGDREKYLDYIANRPRVEKFESHGLFTAGDAPLVLSQVAEEVAAHTGNVWTPIISLRREDAARLDYDNAAAWKALLSSKAMELAENLKIHPDHLKWYGAFHNESHHPHIHMVCYSTDPREGYLTKQGIRKMKSSLANEIFRQELIPLYGEKTQRRDELKEQSAESLRELIRQIKGGVLVSERMEQLLTHLAERLQTVSGKKQYGYLKPELKNVVDEIVDDLAQDSRVSEAYRMWWETKGRIESIYTETPSEPPPLSHCDDFKPIRNMVIQEALLIGNMTFEEPASVETALPEPENDLEMSLSDIEDEEDQEPIDDSVGRPSSDEASAGKESSDSWWTEEYRQAKQYLCGDEDAGVPQDFRKAHELFMAEADKNNPLALYDLGRMSADGLGCEADADAAYGWYEKALVVLHAAEEAKPWKYTEYRIGKMYAAGLGAEQDYLQASDWLTLSADKKYKYAQYSLGGLYYHGKGVEQDHVTAFALYTRSADQSFPYASFELGKMLRDGIGCAKNQQDSDRRFKEAFLGFVSLEEQSHDDKLQYRLGWMLLNGIGTDKDEARAKEYFEKAASVGNPFACYQLAKFILSDEKAQPQDVEKALGYLRKAVEAENPYAAYFLGKLYEKGQHVPQNTAEAMRLYTLSAEQDNEFAAYRLGKLYLDGDGVLKDVESAIRWLTFAADRKNQFAEYALGVLYFKGEDIPKDVPKALEYLKRSAGQGNQFAQYRLGKIYLMGEDVPKDIQTALQFLTAAAEQGNQYAQYTLGKLYLIGKDVPKDKETAVRWFTLSAAQGNIYAQFFLDHIDNFKDPSVLLAGTRLLHHMSRIFADNAPPLKLPGQRTDRKLLRKLREKKQAQGHARDDHEQTMSL | failed
MARKKAMKVLRKQKKRENMQRFTQKQNIGRACLTAKEFRLLQRMSHSSKALRNVGLYTMKQSYLNHNRMATVKEVDTAMQNDMNYSGIQSNSVQAIRRSLFTEVKSFFKALEQWKKNPEKFTGRPKFPNYSRSTDKRIIEIYQVPKVDENGYWIIPMNVAFRKKFGSIQIRMPKNLRNKKISYIEIVPKQKGRFFEVHYTYEMHVSQMKKPSTTTSNALSCDLGVDRLVSCVTHTGDAFLIDGKKLKSINQYFNKMICNLQQKNMDNGISKRIVTNKMAALWHKRERQINGYIAQTVGLLFKKVKEFDIDTIVIGYNAGWKQNSHMGKKNNQKFVQIPFQKLMAAIENKCIKEGIRFFKQEESYTSKASFLDKDPVPVWSKNDRTQYRFSGKRITRGLYQSKAGTCIHADINGAMNILKKSGVVELDDNLKVKTPILLEVQKRKAIASRIA | failed
MARLSLVPGRGGLVTEWTVQGQPILYFDRERFQDPSLSVRGGIPILFPICGNLPQDQFNHAGKSYRLKQHGFARDLPWEVIGQQTQDNARLDLRLSHNDATLEAFPFAFELVFSYQLQGHSLRIEQRIANLGDQRMPFSLGFHPYFFCREKLGITLAIPANDYLDQKTGDCHGYDGQLNLTSPELDLAFTQISQPRAHFIDPDRNLKIEVSFSELYQTLVLWTVAGKDYLCLEPLEHHHHHH | failed
MARRKRRNFSKQASEILNEYFYSHLSNPYPSEEAKEELARKCGITVAQVSNWFGNKRIRYKKNIGKAQEEANLYAAKKAAGASP | not failed
MARTITFDIPSQYKLVDLIGEGAYGTVCSAIHKPSGIKVAIKKIQPFSKKLFVTRTIREIKLLRYFHEHENIISILDKVRPVSIDKLNAVYLVEELMETDLQKVINNQNSGFSTLSDDHVQYFTYQILRALKSIHSAQVIHRDIKPSNLLLNSNCDLKVCDFGLARCLASSSDSRETLVGFMTEYVATRWYRAPEIMLTFQEYTTAMDIWSCGCILAEMVSGKPLFPGRDYHHQLWLILEVLGTPSFEDFNQIKSKRAKEYIANLPMRPPLPWETVWSKTDLNPDMIDLLDKMLQFNPDKRISAAEALRHPYLAMYHDPSDEPEYPPLNLDDEFWKLDNKIMRPEEEEEVPIEMLKDMLYDELMKTME | failed
MARTRSADYENIRDTIIERAAAMFARQGYSETSIGDIARACECSKSRLYHYFDSKEAVLRDMLTTHVDSLLERCRQVLYGSNEPKTRFLQIVKLFLEIYATSRDRHVVMLTCLDALPEDQRKALIAKQRELIAYVRDALLQLRPDMAANRTLAHVDTMLFFGMINWTYTWYKADGSVSPDALAERTVQLFLDGYLNLLSA | not failed
MASATEDPVLERYFKGHKAAITSLDLSPNGKQLATASWDTFLMLWNFKPHARAYRYVGHKDVVTSVQFSPHGNLLASASRDRTVRLWIPDKRGKFSEFKAHTAPVRSVDFSADGQFLATASEDKSIKVWSMYRQRFLYSLYRHTHWVRCAKFSPDGRLIVSCSEDKTIKIWDTTNKQCVNNFSDSVGFANFVDFNPSGTCIASAGSDQTVKVWDVRVNKLLQHYQVHSGGVNCISFHPSGNYLITASSDGTLKILDLLEGRLIYTLQGHTGPVFTVSFSKGGELFASGGADTQVLLWRTNFDELHCKGLTKRNLKRLHFDSPPHLLDIYPRTPHPHEEKVETVEINPKLEVIDLQISTPPVMDILSFDSTTTTETSGRTLPDKGEEACGYFLNPSLMSPECLPTTTKKKTEDMSDLPCESQRSIPLAVTDALEHIMEQLNVLTQTVSILEQRLTLTEDKLKDCLENQQKLFSAVQQKS | failed
MASDINAKLRQKQYEAAVLEFAGDRKGYFVVASDDPQFASLLRQTLTKHLAIPGDAMSTVANPDHILRELKNVTMRRKTVLLFLERILEGRDTNLLVRQLKSAYPDLKIIVITGETERNRLVLLHEVGADNFITKPVSMNTLIEKMAFTIKPLGKLGQLIDQAREFVHQNLPEQGIKLCRQILELKPGSAAGYLVMGEAYQHLGKLDKARECYEEASRNAELYLEPLRRLADIHGEMGEPTEQLRYLERLDQLSPLNVERKVDMGAIHLELGNQEKADELFDTAVQQATREALSYIADISGRIAGIYNGRDPQRAEHFLRRALDAKGDMLDASDLDTFNRLGIALRRQGKWQEALTEYHKALRVAPEDENLFYNMGMACAEGRDFREARANMLKALTINPELPRRDPVMAYNIGLVFMRAGGREYAERCLNIALELDPGFTKAREALERLG | failed
MASDREEFNLCGPTHLTTVDWGNEDHQRCVAACLVQGIYIVEQDRQLKREGTEALASPWWESFNFKLIRHLKDDADFSIFGGIFEYKSLQPDVVDSGVPRYVIAFRGTLTKADSITRDIELDIHIIRNGLHRTSRFEIAMQAVRSMADSVGASSFWLTGHSLGAAMALLAGKTMGKSGVYIKSLLFNPPYVSPPIERIANERVRHGIRFAGSLITAGLALSRTLKQTQQPQQQQLQLQNLTEDPLEALSSWLPNIHVNPGDHLCSEYIGFFEHRGNMEQIGYGAGIVERMAMQHSLGGLLMDAMGVSNAVEVEEPVHVIPSANLIVNKTISEDYKDAHGIHQWWRDDQDLVSHIYMYK | failed
MASEHFDMWESRFSADGYLFGTAPNAFLASCHDLLPKQGRALAIADGEGRNGVFLAECGLSVLSVDFSPTAQAKAHKLAAERGVTIETRTADLLSWQWPGGFDVIAGIFFQFVEPEQRPQIFQQIRAALKPGALLLIEGYRPKQLAYKTGGPSRAENLYTRELLEQAFGDFDNLSIRERDSEIVEGAGHAGLSALIDLIGWKPKLEHHHHHH | not failed
MASEWNVAAERHSALHYLYRLGDAVLIAVCGIAMGALYFHDGIRSAAPVNGFLTMLCALGALLIFPAFGIYESWRGRSRAVLGLRIAAAWTLVFISGLLGAFLIHQIGAVSRVWSMGWFIGTGVMLALSRVVMFRMLANVRQQGINAKRVLIFGYGPLGREMYDRVQHFRDAGYRVVGVYDEESDAIPYDVTPLRQIEEVSGFVRDHGVREIWLTLPMAACRDLSGVVRQFRNEMIDIRWVPDVSSVELLGHRFSEFMGLPVIDLNSPPVSGITGVVKASFDRVFSLGVLVCLSPLLLLIAAMVKLSSPGPVLFRQQRLGIDGQPFNVYKFRTMRQHQDGGGVTQAVRGDPRVTRVGAFLRRTSLDELPQFINVLRGEMSVVGPRPHAMEHNELYKELIDRYMLRHRVKPGITGWAQINGLRGQTDTVEKMRKRIEFDIYYIQHWSFQLDLRIILRTALHGWTGTTAY | failed
MASFCNSWKRKHNEAIKLSEEIDGMILERSSLAETSSYARGHASYMRRKITILANGVQTLKNLLAESQGKSISAKEMSRCKDMVEDLRSKAYQMASALDMLKFSNIGSLLGQDDIMSRVIDMDNQEIVGFQRTTMKGKLKGVMHLKREALAMNMELGLQTRLIDRLDHHVDVSASDVEELQRSIDTGVCMTLLLSVVVVVFGLSEFVKFGRRRILG | failed
MASFPHPGSVTVCEINRDLITAQNLSDERAQETYGKVLGMVFSPVSFDSTPSSLQENEGQENGDKASGESKGLVATLQMKVADSLKQILQPTDVTLLSEIDLQGVSWHQGKHIIAFISGANQVTIRDYEDKDEKEPCILTSDSQRNVKALEWRPNGGKSLSIACRGGICIWAASYPGNMALVRSGGSALRGSLSRGSGTRWILVDFLRCQNDEQISALSWSPCGRYLASASYDSSSFTIWDVSQGAGTPIRRGLGGISMLKWSPTGDYFFAARFDGTFCLWETNTWTSEPWSLSSGSGSVTGAIWDPEGRFILISFSKSSTLGSVHFSSKPPSLDAHLLPVELPEIASLTGCEGIEKIAWDASGERLAVSYKGGDENYKGLIAIYDTRRTPIVSASLVGFIRGPGENPKALSFSFHDKFKQGPLLSVCWSTGFCCTYPLIFRSHVLP | failed
MASGKSIMGGLPPLKPGEKLPRLQTVIATSPENPAGDPNIRPQQAGEAAGKVIGGGLGVLLVTVCVLLLLGPVLWAPGWAGLRVARFLSGPWQPWLAGFAAFVAVAVLQTFLLIQRHPALRYPIVTLFSVLWVGGLWLEFNSPRHDWVTTAPTLQMPGPWSWALIISGSVVYAGIYLLALAPVGKSRWARRWQLLK | failed
MASGLFENDGIKDNKARDFFYSHSSLIVFFLLLLGFGYYLGKLLFGGSSLEVYLDLRDKHERLQQEITELQSKNVRLQKRLFELKELRPRD | failed
MASGLSEIGSTKMFDGYNKRYKHFSETLGCSMTFSIYFPPSASSSHKSPVLYWLSGLTCTDENFIIKSGAQRAASTHGIALVAPDTSPRGLNVEGEADSYDFGVGAGFYLNATQEKWKNWRMYDYVVKELPKLLSENFSQLDTTKASISGHSMGGHGALTIYLRNLDKYKSVSAFAPITNPINCAWGQKAFTNYLGDNKAAWEEYDATCLISKYNNLSATILIDQGENDQFYPDQLLPSKFEEACKKVNAPLLLRLHPGYDHSYYFIATFIEDHISHHAQALEL | failed
MASGMGVDENCVARFNELKIRKTVKWIVFKIENTKIVVEKDGKGNADEFRGALPANDCRFGVYDCGNKIQFVLWCPDNAPVKPRMTYASSKDALLKKLDGATAVALEAHEMGDLAALA | failed
